From publication PMC8104898

Molecular target: fibronectin fragment FN7-10 (type III domains 7 to 10), wild type
Assay: ELISA

reduction of binding against the wild-type ectodomain: 60%
Substance: recombinant integrin α5(N275A)β1 ectodomain, unclasped (from UniProt P08648;P05556) (complex)
